Patent US20040002442A1 (Bayer, published 2004)
Ends that are not written are not given here.

T1: GLP-1 receptor present in the plasma membranes isolated from RINm5F cells (UniProt P32301 22-463, limits assumed)
T1 construct: whole, on cells
T1 sequence (looked up): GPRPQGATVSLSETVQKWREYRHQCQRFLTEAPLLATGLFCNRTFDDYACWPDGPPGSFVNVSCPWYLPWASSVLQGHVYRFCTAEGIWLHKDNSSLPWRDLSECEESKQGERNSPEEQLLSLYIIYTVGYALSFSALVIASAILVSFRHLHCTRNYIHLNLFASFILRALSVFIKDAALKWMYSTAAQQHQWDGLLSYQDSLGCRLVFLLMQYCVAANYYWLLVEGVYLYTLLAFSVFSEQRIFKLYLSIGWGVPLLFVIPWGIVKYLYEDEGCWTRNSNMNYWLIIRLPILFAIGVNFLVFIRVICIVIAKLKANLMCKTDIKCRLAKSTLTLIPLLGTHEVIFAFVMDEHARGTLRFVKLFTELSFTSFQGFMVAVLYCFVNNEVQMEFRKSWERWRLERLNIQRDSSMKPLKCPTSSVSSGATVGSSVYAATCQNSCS


These binders were tested against T1, GLP-1 receptor present in the plasma … (assay: 125I-GLP-1 displacement, RINm5F plasma membranes).
Experimental: Competitive binding of some polypeptides of the invention to RINm5F cell plasma membranes was measured as follows. Ninety-six-well GF/C filtration plates (Millipore, Bedford, Ma.) were blocked with 0.3% PEI for at least one hour and washed twice with binding buffer consisting of 20 mM Tris, 2 mM EDTA, pH 7.5, 1 mg/ml BSA, and 1 mg/ml bacitracin. […] The plates were dried, scintillant was added to each well, and cpm per well determined using a Wallac Microbeta counter.

| Binder | IC50 [nM] |
| --- | --- |
| HSQGTFTSDYARYLDARRAREFIAWLVRGRGK [G85] | 1.5 |
| HSQGTFTSDYAKYLDARRAKEFIAWLVKGR-NH2 [G27] | 2.2 |
| HSQGTFTSDYAAYLDARRAKEFIAWLVKGR-NH2 [G56] | 6.6 |
| HSQGTFTSDYAKYLDAARAKEFIAWLVKGR-NH2 [G57] | 14.7 |
| HSQGTFTSDYARYLDARRAKEFIAWLVKGR-NH2 [G55] | 9.8 |
| HSQGTFTSDYARYLDAKKAKEFIAWLVKGRG [G59] | 2.1 |
| HSQGTFTSDYAKYLDARRAKEFIAWLVKCRG [G75] | 7.7 |
| HSQGTFTSDYARYLDARRAKEFIAWLVRGRG [G82] | 8.1 |
| HSQGTFTSDYAKYLDARRAKEFIAWLVKGRC [G77] | 8.9 |
| HSQGTFTSDYAKYLDAAKAKEFIAWLVKGRG [G60] | 13.8 |
| HSQGTFTSDYARYLDAAKAKEFIAWLVKGRG [G61] | 10.6 |
| HSQGTFTSDYARYLDARRAREFIKWLVRGRC [G185] | 4.5 |
| HSQGTFTSDYAKYLDARRAKEFIAWLVCGRG [G74] | 4.4 |
| HSQGTFTSDYARYLDARRAREFIAWLVKGRG [G84] | 1.4 |
| HSQGTFTSDYAKYLDARRACEFIAWLVKGRG [G71] | 5.8 |
| HSQGTFTSDYAKYLDARRAKEFIAWLVKGCG [G76] | 10.2 |
| HSQGTFTSDYARYLDARRAREFIKWLVRGRG [G83] | 3.2 |

These binders were tested against T2, glucagon receptor present in the plasma membranes isolated from rat liver (rat, UniProt P30082 27-485) (assay: 125I-glucagon displacement, rat liver plasma membranes).
T2 construct: whole, on cells
T2 sequence (P30082 27-485): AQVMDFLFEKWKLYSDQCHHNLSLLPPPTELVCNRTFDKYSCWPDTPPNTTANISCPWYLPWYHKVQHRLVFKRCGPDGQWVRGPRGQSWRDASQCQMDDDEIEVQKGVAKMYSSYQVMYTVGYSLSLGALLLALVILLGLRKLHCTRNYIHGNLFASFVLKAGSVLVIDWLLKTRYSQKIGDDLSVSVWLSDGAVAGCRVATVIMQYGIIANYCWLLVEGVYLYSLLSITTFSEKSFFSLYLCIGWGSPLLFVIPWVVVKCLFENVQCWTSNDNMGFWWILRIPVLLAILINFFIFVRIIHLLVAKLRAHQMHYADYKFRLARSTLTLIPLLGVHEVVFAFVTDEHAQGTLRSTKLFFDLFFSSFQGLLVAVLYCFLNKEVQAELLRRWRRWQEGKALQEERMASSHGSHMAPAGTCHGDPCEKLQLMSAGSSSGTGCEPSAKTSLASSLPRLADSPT
Experimental: Competitive binding of some polypeptides of the invention to rat liver plasma membranes was measured as follows. Ninety-six-well GF/C filtration plates (Millipore, Bedford, Ma.) were blocked with 0.1% PEI for at least one hour and washed twice with binding buffer consisting of 20 mM Tris, 2 mM EDTA, pH 7.5, 1 mg/ml BSA, and 1 mg/ml bacitracin. […] The plates were dried, scintillant was added to each well, and cpm per well determined using a Wallac Microbeta counter.

| Binder | IC50 [nM] |
| --- | --- |
| HSQGTFTSDYARYLDARRAREFIAWLVRGRGK [G85] | 16.1 |
| HSQGTFTSDYAKYLDARRAKEFIAWLVKGR-NH2 [G27] | 69.3 |
| HSQGTFTSDYAAYLDARRAKEFIAWLVKGR-NH2 [G56] | 125 |
| HSQGTFTSDYAKYLDAARAKEFIAWLVKGR-NH2 [G57] | 178 |
| HSQGTFTSDYARYLDARRAKEFIAWLVKGR-NH2 [G55] | 139 |
| HSQGTFTSDYARYLDAKKAKEFIAWLVKGRG [G59] | 97.5 |
| HSQGTFTSDYAKYLDARRAKEFIAWLVKCRG [G75] | 54 |
| HSQGTFTSDYARYLDARRAKEFIAWLVRGRG [G82] | 33.6 |
| HSQGTFTSDYAKYLDARRAKEFIAWLVKGRC [G77] | 61.1 |
| HSQGTFTSDYAKYLDAAKAKEFIAWLVKGRG [G60] | 682 |
| HSQGTFTSDYARYLDAAKAKEFIAWLVKGRG [G61] | 232 |
| HSQGTFTSDYARYLDARRAREFIKWLVRGRC [G185] | 48 |
| HSQGTFTSDYAKYLDARRAKEFIAWLVCGRG [G74] | 21.7 |
| HSQGTFTSDYARYLDARRAREFIAWLVKGRG [G84] | 11.7 |
| HSQGTFTSDYAKYLDARRACEFIAWLVKGRG [G71] | 25.6 |
| HSQGTFTSDYAKYLDARRAKEFIAWLVKGCG [G76] | 59.1 |
| HSQGTFTSDYARYLDARRAREFIKWLVRGRG [G83] | 28.6 |

The binders below were run against T1, GLP-1 receptor present in the plasma … (assay: cell-based or functional assay).

| Binder | % GLP1 max, cAMP SPA in RINm5F cells [%] | Relative Potency (%), cAMP SPA in RINm5F cells [%] |
| --- | --- | --- |
| HSQGTFTSDYARYLDARRAREFIAWLVRGRGK [G85] | 95.8 | 64.5 |
| HSQGTFTSDYAKYLDARRAKEFIAWLVKGR-NH2 [G27] | 98.1 | 13.4 |
| HSQGTFTSDYAAYLDARRAKEFIAWLVKGR-NH2 [G56] | 115 | 37.2 |
| HSQGTFTSDYAKYLDAARAKEFIAWLVKGR-NH2 [G57] | 132 | 18.3 |
| HSQGTFTSDYARYLDARRAKEFIAWLVKGR-NH2 [G55] | 116 | 18.6 |
| HSQGTFTSDYARYLDAKKAKEFIAWLVKGRG [G59] | 102 | 22.7 |
| HSQGTFTSDYAKYLDARRAKEFIAWLVKCRG [G75] | 86.1 | 6.6 |
| HSQGTFTSDYARYLDARRAKEFIAWLVRGRG [G82] | 97.1 | 29.9 |
| HSQGTFTSDYAKYLDARRAKEFIAWLVKGRC [G77] | 92.1 | 9.5 |
| HSQGTFTSDYAKYLDAAKAKEFIAWLVKGRG [G60] | 95.7 | 22.3 |
| HSQGTFTSDYARYLDAAKAKEFIAWLVKGRG [G61] | 96 | 12.1 |
| HSQGTFTSDYARYLDARRAREFIKWLVRGRC [G185] | 104 | 13 |
| HSQGTFTSDYAKYLDARRAKEFIAWLVCGRG [G74] | 88.7 | 8.4 |
| HSQGTFTSDYARYLDARRAREFIAWLVKGRG [G84] | 114 | 61.8 |
| HSQGTFTSDYAKYLDARRACEFIAWLVKGRG [G71] | 93.3 | 4.3 |
| HSQGTFTSDYAKYLDARRAKEFIAWLVKGCG [G76] | 85 | 7.7 |
| HSQGTFTSDYARYLDARRAREFIKWLVRGRG [G83] | 89.4 | 29.9 |

These binders were tested against T2, glucagon receptor present in the plasma … (assay: cell-based or functional assay).

| Binder | % Inhib glucagon stimulated cAMP increase (10 uM peptide, rat hepatocytes) [%] |
| --- | --- |
| HSQGTFTSDYARYLDARRAREFIAWLVRGRGK [G85] | 27.9 |
| HSQGTFTSDYAKYLDARRAKEFIAWLVKGR-NH2 [G27] | 31 |
| HSQGTFTSDYAAYLDARRAKEFIAWLVKGR-NH2 [G56] | 28.6 |
| HSQGTFTSDYAKYLDAARAKEFIAWLVKGR-NH2 [G57] | 18.4 |
| HSQGTFTSDYARYLDARRAKEFIAWLVKGR-NH2 [G55] | 32.1 |
| HSQGTFTSDYARYLDAKKAKEFIAWLVKGRG [G59] | 41.1 |
| HSQGTFTSDYAKYLDARRAKEFIAWLVKCRG [G75] | 17.1 |
| HSQGTFTSDYARYLDARRAKEFIAWLVRGRG [G82] | 30.2 |
| HSQGTFTSDYAKYLDARRAKEFIAWLVKGRC [G77] | 18.6 |
| HSQGTFTSDYAKYLDAAKAKEFIAWLVKGRG [G60] | 21.8 |
| HSQGTFTSDYARYLDAAKAKEFIAWLVKGRG [G61] | 45.2 |
| HSQGTFTSDYARYLDARRAREFIKWLVRGRC [G185] | 32 |
| HSQGTFTSDYAKYLDARRAKEFIAWLVCGRG [G74] | 23.7 |
| HSQGTFTSDYARYLDARRAREFIAWLVKGRG [G84] | 25.2 |
| HSQGTFTSDYAKYLDARRACEFIAWLVKGRG [G71] | 11.3 |
| HSQGTFTSDYAKYLDARRAKEFIAWLVKGCG [G76] | 23 |
| HSQGTFTSDYARYLDARRAREFIKWLVRGRG [G83] | 24.7 |
